Measured values published in article PMC9352680, “A comprehensive thermodynamic model for RNA binding by the Saccharomyces cerevisiae Pumilio protein PUF4”.

What follows are binders tested against T1, PUF4 RNA-binding domain (Saccharomyces cerevisiae, UniProt P25339 537-888) (assay: Mg; RNA-MaP; 20 mM Na-HEPES pH 7.4, 30 mM KOAc, 0.75 mM MgCl2, 0.1% Tween-20, 5% glycerol, 0.1 mg/mL BSA, 2 mM DTT; 25 C; 0.0125-409.6 nM protein). Conditions: tags: N-His6-TEV cleaved; C-SNAP kept, Cy3B-labelled; label: tethered on chip by stalled RNA polymerase.
T1 sequence: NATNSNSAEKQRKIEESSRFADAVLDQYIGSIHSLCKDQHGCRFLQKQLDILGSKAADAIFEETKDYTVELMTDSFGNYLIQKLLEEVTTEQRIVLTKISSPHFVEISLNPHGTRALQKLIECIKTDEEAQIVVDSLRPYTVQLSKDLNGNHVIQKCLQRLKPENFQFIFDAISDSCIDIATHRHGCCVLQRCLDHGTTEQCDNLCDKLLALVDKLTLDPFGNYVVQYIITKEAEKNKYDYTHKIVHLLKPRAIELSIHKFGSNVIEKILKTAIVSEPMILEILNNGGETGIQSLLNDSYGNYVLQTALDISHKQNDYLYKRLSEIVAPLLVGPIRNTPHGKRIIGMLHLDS

Binder | Kd [nM]
UCUCUUUGUACAUACGUCUCUU (ssRNA) [Ic_S1_P5E.1_K5.1_C5.1_H5.1_A5.1_[T5C]_[T6A]_[A7T]_F5.1_[T8A]_[T9C]_[A10G]_T5.1] | 11
UCUCUUUUAAUAUAUCUCUU (ssRNA) [Ib_S1_P3E.1_K3.1_C3.1_H3.1_[G2T]_[T3A]_A3.1_F3.1_T3.1] | > 2300
UCUCUUUGUAUGUGCCUCUCUU (ssRNA) [Ic_S1_P5E.1_K5.1_C5.1_H5.1_A5.1_[T6G]_[A7T]_F5.1_[T8G]_[T9C]_[A10C]_T5.1] | 838
UCUCUUUGUACCCCAAUCUCUU (ssRNA) [Ic_S1_P5E.1_K5.1_C5.1_H5.1_A5.1_[T5C]_[T6C]_[A7C]_F5.1_[T8C]_[T9A]_T5.1] | 1350
UCUCUUUGUAAAGCCAUCUCUU (ssRNA) [Ic_S1_P5E.1_K5.1_C5.1_H5.1_A5.1_[T5A]_[T6A]_[A7G]_F5.1_[T8C]_[T9C]_T5.1] | 1060
UCUCUUUGUACCACCCUCUCUU (ssRNA) [Ic_S1_P5E.1_K5.1_C5.1_H5.1_A5.1_[T5C]_[T6C]_F5.1_[T8C]_[T9C]_[A10C]_T5.1] | 523
UCUCUUUGUACUACCCUCUCUU (ssRNA) [Ic_S1_P5E.1_K5.1_C5.1_H5.1_A5.1_[T5C]_F5.1_[T8C]_[T9C]_[A10C]_T5.1] | 656
UCUCUUUGUAUAAAAAUCUCUU (ssRNA) [Ic_S1_P5E.1_K5.1_C5.1_H5.1_A5.1_[T6A]_F5.1_[T8A]_[T9A]_T5.1] | 42
UCUCUUUGUACAAACUUCUCUU (ssRNA) [Ic_S1_P5E.1_K5.1_C5.1_H5.1_A5.1_[T5C]_[T6A]_F5.1_[T8A]_[T9C]_[A10T]_T5.1] | 93.1
UCUCUUUGUAAAGCUCUCUCUU (ssRNA) [Ic_S1_P5E.1_K5.1_C5.1_H5.1_A5.1_[T5A]_[T6A]_[A7G]_F5.1_[T8C]_[A10C]_T5.1] | 1270
UCUCUUUGUACCAUCCUCUCUU (ssRNA) [Ic_S1_P5E.1_K5.1_C5.1_H5.1_A5.1_[T5C]_[T6C]_F5.1_[T9C]_[A10C]_T5.1] | 12.5
UCUCUUUGUAAUUUCGUCUCUU (ssRNA) [Ic_S1_P5E.1_K5.1_C5.1_H5.1_A5.1_[T5A]_[A7T]_F5.1_[T9C]_[A10G]_T5.1] | 92.7
UCUCUUUGUAUCUUGAUCUCUU (ssRNA) [Ic_S1_P5E.1_K5.1_C5.1_H5.1_A5.1_[T6C]_[A7T]_F5.1_[T9G]_T5.1] | 72.1
UCUCUUUGUAGUUCCCUCUCUU (ssRNA) [Ic_S1_P5E.1_K5.1_C5.1_H5.1_A5.1_[T5G]_[A7T]_F5.1_[T8C]_[T9C]_[A10C]_T5.1] | 1650
UCUCUUUGUACACCGAUCUCUU (ssRNA) [Ic_S1_P5E.1_K5.1_C5.1_H5.1_A5.1_[T5C]_[T6A]_[A7C]_F5.1_[T8C]_[T9G]_T5.1] | 425
UCUCUUUGUACACGCCUCUCUU (ssRNA) [Ic_S1_P5E.1_K5.1_C5.1_H5.1_A5.1_[T5C]_[T6A]_[A7C]_F5.1_[T8G]_[T9C]_[A10C]_T5.1] | 394
UCUCUUUGUAAAUCAGUCUCUU (ssRNA) [Ic_S1_P5E.1_K5.1_C5.1_H5.1_A5.1_[T5A]_[T6A]_[A7T]_F5.1_[T8C]_[T9A]_[A10G]_T5.1] | 26.1
UCUCUUUCUCUAUAUCUCUU (ssRNA) [Ib_S1_P3E.1_K3.1_C3.1_H3.1_[G2C]_[A4C]_A3.1_F3.1_T3.1] | > 2300
UCUCUUUGUAAUUUGCUCUCUU (ssRNA) [Ic_S1_P5E.1_K5.1_C5.1_H5.1_A5.1_[T5A]_[A7T]_F5.1_[T9G]_[A10C]_T5.1] | 81.9
UCUCUUUGUACAAAAUUCUCUU (ssRNA) [Ic_S1_P5E.1_K5.1_C5.1_H5.1_A5.1_[T5C]_[T6A]_F5.1_[T8A]_[T9A]_[A10T]_T5.1] | 30.9

Binder | Kd [nM]
UCUCUUUGUAAACAACUCUCUU (ssRNA) [Ic_S1_P5E.1_K5.1_C5.1_H5.1_A5.1_[T5A]_[T6A]_[A7C]_F5.1_[T8A]_[T9A]_[A10C]_T5.1] | 88.4
UCUCUUUGUAUCUCUGUCUCUU (ssRNA) [Ic_S1_P5E.1_K5.1_C5.1_H5.1_A5.1_[T6C]_[A7T]_F5.1_[T8C]_[A10G]_T5.1] | 58.6
UCUCUUUCUGUAUAUCUCUU (ssRNA) [Ib_S1_P3E.1_K3.1_C3.1_H3.1_[G2C]_[A4G]_A3.1_F3.1_T3.1] | 27.6
UCUCUUUGUACCAUGAUCUCUU (ssRNA) [Ic_S1_P5E.1_K5.1_C5.1_H5.1_A5.1_[T5C]_[T6C]_F5.1_[T9G]_T5.1] | 8.03
UCUCUUUGUAAUUACGUCUCUU (ssRNA) [Ic_S1_P5E.1_K5.1_C5.1_H5.1_A5.1_[T5A]_[A7T]_F5.1_[T8A]_[T9C]_[A10G]_T5.1] | 613
UCUCUUUGUACUCUGUUCUCUU (ssRNA) [Ic_S1_P5E.1_K5.1_C5.1_H5.1_A5.1_[T5C]_[A7C]_F5.1_[T9G]_[A10T]_T5.1] | 21.5
UCUCUUUGUAUACGACUCUCUU (ssRNA) [Ic_S1_P5E.1_K5.1_C5.1_H5.1_A5.1_[T6A]_[A7C]_F5.1_[T8G]_[T9A]_[A10C]_T5.1] | 49
UCUCUUUGUACAGUCCUCUCUU (ssRNA) [Ic_S1_P5E.1_K5.1_C5.1_H5.1_A5.1_[T5C]_[T6A]_[A7G]_F5.1_[T9C]_[A10C]_T5.1] | 13.5
UCUCUUUGUAACUUGUUCUCUU (ssRNA) [Ic_S1_P5E.1_K5.1_C5.1_H5.1_A5.1_[T5A]_[T6C]_[A7T]_F5.1_[T9G]_[A10T]_T5.1] | 49.4
UCUCUUUUCAUAUAUCUCUU (ssRNA) [Ib_S1_P3E.1_K3.1_C3.1_H3.1_[G2T]_[T3C]_A3.1_F3.1_T3.1] | > 2300
UCUCUUUGUACUGCGCUCUCUU (ssRNA) [Ic_S1_P5E.1_K5.1_C5.1_H5.1_A5.1_[T5C]_[A7G]_F5.1_[T8C]_[T9G]_[A10C]_T5.1] | 1380
UCUCUUUGUAUACACUUCUCUU (ssRNA) [Ic_S1_P5E.1_K5.1_C5.1_H5.1_A5.1_[T6A]_[A7C]_F5.1_[T8A]_[T9C]_[A10T]_T5.1] | 69.2
UCUCUUUGUAAUCAGCUCUCUU (ssRNA) [Ic_S1_P5E.1_K5.1_C5.1_H5.1_A5.1_[T5A]_[A7C]_F5.1_[T8A]_[T9G]_[A10C]_T5.1] | 1300
UCUCUUUGUAUUACCUUCUCUU (ssRNA) [Ic_S1_P5E.1_K5.1_C5.1_H5.1_A5.1_F5.1_[T8C]_[T9C]_[A10T]_T5.1] | 496
UCUCUUUGUACCCAUCUCUCUU (ssRNA) [Ic_S1_P5E.1_K5.1_C5.1_H5.1_A5.1_[T5C]_[T6C]_[A7C]_F5.1_[T8A]_[A10C]_T5.1] | 603
UCUCUUUGUAAUGCUUUCUCUU (ssRNA) [Ic_S1_P5E.1_K5.1_C5.1_H5.1_A5.1_[T5A]_[A7G]_F5.1_[T8C]_[A10T]_T5.1] | 181
UCUCUUUGUAUAGCUCUCUCUU (ssRNA) [Ic_S1_P5E.1_K5.1_C5.1_H5.1_A5.1_[T6A]_[A7G]_F5.1_[T8C]_[A10C]_T5.1] | 111
UCUCUUUGUAAUGUUUUCUCUU (ssRNA) [Ic_S1_P5E.1_K5.1_C5.1_H5.1_A5.1_[T5A]_[A7G]_F5.1_[A10T]_T5.1] | 118
UCUCUUUGUAUGUUCCUCUCUU (ssRNA) [Ic_S1_P5E.1_K5.1_C5.1_H5.1_A5.1_[T6G]_[A7T]_F5.1_[T9C]_[A10C]_T5.1] | 28.6
UCUCUUUGUAUAAUGGUCUCUU (ssRNA) [Ic_S1_P5E.1_K5.1_C5.1_H5.1_A5.1_[T6A]_F5.1_[T9G]_[A10G]_T5.1] | 8.53

Binder | Kd [nM]
UCUCUUUCAAUAUAUCUCUU (ssRNA) [Ib_S1_P3E.1_K3.1_C3.1_H3.1_[G2C]_[T3A]_A3.1_F3.1_T3.1] | > 2300
UCUCUUUGUACAUUACUCUCUU (ssRNA) [Ic_S1_P5E.1_K5.1_C5.1_H5.1_A5.1_[T5C]_[T6A]_[A7T]_F5.1_[T9A]_[A10C]_T5.1] | 0.694
UCUCUUUGUACGAAUUUCUCUU (ssRNA) [Ic_S1_P5E.1_K5.1_C5.1_H5.1_A5.1_[T5C]_[T6G]_F5.1_[T8A]_[A10T]_T5.1] | 693
UCUCUUUGUAUCUAUAUCUCUU (ssRNA) [Ic_S1_P5E.1_K5.1_C5.1_H5.1_A5.1_[T6C]_[A7T]_F5.1_[T8A]_T5.1] | 11.5
UCUCUUUGUAUAACGUUCUCUU (ssRNA) [Ic_S1_P5E.1_K5.1_C5.1_H5.1_A5.1_[T6A]_F5.1_[T8C]_[T9G]_[A10T]_T5.1] | 34.4
UCUCUUUGUAAGCUCCUCUCUU (ssRNA) [Ic_S1_P5E.1_K5.1_C5.1_H5.1_A5.1_[T5A]_[T6G]_[A7C]_F5.1_[T9C]_[A10C]_T5.1] | 1500
UCUCUUUGUAAGCACUUCUCUU (ssRNA) [Ic_S1_P5E.1_K5.1_C5.1_H5.1_A5.1_[T5A]_[T6G]_[A7C]_F5.1_[T8A]_[T9C]_[A10T]_T5.1] | > 2300
UCUCUUUGUACCAAUCUCUCUU (ssRNA) [Ic_S1_P5E.1_K5.1_C5.1_H5.1_A5.1_[T5C]_[T6C]_F5.1_[T8A]_[A10C]_T5.1] | 119
UCUCUUUGUAUGUCCCUCUCUU (ssRNA) [Ic_S1_P5E.1_K5.1_C5.1_H5.1_A5.1_[T6G]_[A7T]_F5.1_[T8C]_[T9C]_[A10C]_T5.1] | 125
UCUCUUUGUAUGGUAUUCUCUU (ssRNA) [Ic_S1_P5E.1_K5.1_C5.1_H5.1_A5.1_[T6G]_[A7G]_F5.1_[T9A]_[A10T]_T5.1] | 13.3
UCUCUUUGUAACCAUGUCUCUU (ssRNA) [Ic_S1_P5E.1_K5.1_C5.1_H5.1_A5.1_[T5A]_[T6C]_[A7C]_F5.1_[T8A]_[A10G]_T5.1] | 481
UCUCUUUGUAAGUUAAUCUCUU (ssRNA) [Ic_S1_P5E.1_K5.1_C5.1_H5.1_A5.1_[T5A]_[T6G]_[A7T]_F5.1_[T9A]_T5.1] | 66.4
UCUCUUUGUAUGGUUGUCUCUU (ssRNA) [Ic_S1_P5E.1_K5.1_C5.1_H5.1_A5.1_[T6G]_[A7G]_F5.1_[A10G]_T5.1] | 717
UCUCUUUGUAUAUAAUCUCUU (ssRNA) [Ia_S1_P4E.1_K4.1_C4.1_H4.1_A4.1_F4.1_[T8A]_T4.1] | 4.12
UCUCUUUGUACCCGCGUCUCUU (ssRNA) [Ic_S1_P5E.1_K5.1_C5.1_H5.1_A5.1_[T5C]_[T6C]_[A7C]_F5.1_[T8G]_[T9C]_[A10G]_T5.1] | > 2300
UCUCUUUGUAUCGUACUCUCUU (ssRNA) [Ic_S1_P5E.1_K5.1_C5.1_H5.1_A5.1_[T6C]_[A7G]_F5.1_[T9A]_[A10C]_T5.1] | 13.9
UCUCUUUGUACUUCCAUCUCUU (ssRNA) [Ic_S1_P5E.1_K5.1_C5.1_H5.1_A5.1_[T5C]_[A7T]_F5.1_[T8C]_[T9C]_T5.1] | 666
UCUCUUUGUAUAACAUUCUCUU (ssRNA) [Ic_S1_P5E.1_K5.1_C5.1_H5.1_A5.1_[T6A]_F5.1_[T8C]_[T9A]_[A10T]_T5.1] | 12.6
UCUCUUUGUACGGCUGUCUCUU (ssRNA) [Ic_S1_P5E.1_K5.1_C5.1_H5.1_A5.1_[T5C]_[T6G]_[A7G]_F5.1_[T8C]_[A10G]_T5.1] | 2200
